Measurements from the supplement of paper PMC11316812.
± gives the standard deviation of the averaged measurements.

Key:
MCF7 = assay: percentage of EdU-negative (G0-arrested) nuclei per well, 72 h; higher = more G0 arrest; conditions: reference: sequence is the full UniProt precursor, the tested protein was the secreted form or ectodomain
hTERT-HMEC = assay: as above; conditions: reference: sequence is the full UniProt precursor, the tested protein was the secreted form or ectodomain
[1] = protein concentration 0.0225 µM
[2] = protein concentration 0.012845 µM
[3] = protein concentration 0.12845 µM
[4] = protein concentration 0.0182675 µM
[5] = protein concentration 0.182675 µM
[6] = protein concentration 0.03125 µM
[7] = protein concentration 0.3125 µM
[8] = protein concentration 0.0357143 µM
[9] = protein concentration 0.357143 µM
[10] = protein concentration 0.00725 µM
[11] = protein concentration 0.0725 µM
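Also: secreted proteins added to cultured cells, EdU pulse at the end, nuclei found by Hoechst imaging, EdU status from nuclear versus surrounding ring intensity ratio, PBS as neutral control.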

MEIPVPVQPSWLRRASAPLPGLSAPGRLFDQRFGEGLLEAELAALCPTTLAPYYLRAPSVALPVAQVPTDPGHFSVLLDVKHFSPEEIAVKVVGEHVEVHARHEERPDEHGFVAREFHRRYRLPPGVDPAAVTSALSPEGVLSIQAAPASAQAPPPAAAK
percentage of EdU-negative (MCF7; [1]): 27 ± 0.81% | percentage of EdU-negative (MCF7; protein concentration 0.225 µM): 25.6 ± 1.1% | percentage of EdU-negative (hTERT-HMEC; [1]): 4.93 ± 0.29% | percentage of EdU-negative (hTERT-HMEC; protein concentration 0.225 µM): 5.53 ± 0.95%

MKRSVAVWLLVGLSLGVPQFGKGDICDPNPCENGGICLPGLADGSFSCECPDGFTDPNCSSVVEVASDEEEPTSAGPCTPNPCHNGGTCEISEAYRGDTFIGYVCKCPRGFNGIHCQHNINECEVEPCKNGGICTDLVANYSCECPGEFMGRNCQYKCSGPLGIEGGIISNQQITASSTHRALFGLQKWYPYYARLNKKGLINAWTAAENDRWPWIQINLQRKMRVTGVITQGAKRIGSPEYIKSYKIAYSNDGKTWAMYKVKGTNEDMVFRGNIDNNTPYANSFTPPIKAQYVRLYPQVCRRHCTLRMELLGCELSGCSEPLGMKSGHIQDYQITASSIFRTLNMDMFTWEPRKARLDKQGKVNAWTSGHNDQSQWLQVDLLVPTKVTGIITQGAKDFGHVQFVGSYKLAYSNDGEHWTVYQDEKQRKDKVFQGNFDNDTHRKNVIDPPIYARHIRILPWSWYGRITLRSELLGCTEEE
percentage of EdU-negative (MCF7; [2]): 25.7 ± 1.6% | percentage of EdU-negative (MCF7; [3]): 30.6 ± 1.9% | percentage of EdU-negative (hTERT-HMEC; [2]): 4.79 ± 0.32% | percentage of EdU-negative (hTERT-HMEC; [3]): 47.8 ± 1.9%

MLKALFLTMLTLALVKSQDTEETITYTQCTDGYEWDPVRQQCKDIDECDIVPDACKGGMKCVNHYGGYLCLPKTAQIIVNNEQPQQETQPAEGTSGATTGVVAASSMATSGVLPGGGFVASAAAVAGPEMQTGRNNFVIRRNPADPQRIPSNPSHRIQCAAGYEQSEHNVCQDIDECTAGTHNCRADQVCINLRGSFACQCPPGYQKRGEQCVDIDECTIPPYCHQRCVNTPGSFYCQCSPGFQLAANNYTCVDINECDASNQCAQQCYNILGSFICQCNQGYELSSDRLNCEDIDECRTSSYLCQYQCVNEPGKFSCMCPQGYQVVRSRTCQDINECETTNECREDEMCWNYHGGFRCYPRNPCQDPYILTPENRCVCPVSNAMCRELPQSIVYKYMSIRSDRSVPSDIFQIQATTIYANTINTFRIKSGNENGEFYLRQTSPVSAMLVLVKSLSGPREHIVDLEMLTVSSIGTFRTSSVLRLTIIVGPFSF
percentage of EdU-negative (MCF7; [4]): 28 ± 2.2% | percentage of EdU-negative (MCF7; [5]): 29.1 ± 1.9% | percentage of EdU-negative (hTERT-HMEC; [4]): 4.75 ± 0.46% | percentage of EdU-negative (hTERT-HMEC; [5]): 15.7 ± 1.1%

MSSSCSGLSRVLVAVATALVSASSPCPQAWGPPGVQYGQPGRSVKLCCPGVTAGDPVSWFRDGEPKLLQGPDSGLGHELVLAQADSTDEGTYICQTLDGALGGTVTLQLGYPPARPVVSCQAADYENFSCTWSPSQISGLPTRYLTSYRKKTVLGADSQRRSPSTGPWPCPQDPLGAARCVVHGAEFWSQYRINVTEVNPLGASTRLLDVSLQSILRPDPPQGLRVESVPGYPRRLRASWTYPASWPCQPHFLLKFRLQYRPAQHPAWSTVEPAGLEEVITDAVAGLPHAVRVSARDFLDAGTWSTWSPEAWGTPSTGTIPKEIPAWGQLHTQPEVEPQVDSPAPPRPSLQPHPRLLDHRDSVEQVAVLASLGILSFLGLVAGALALGLWLRLRRGGKDGSPKPGFLASVIPVDRRPGAPNL
percentage of EdU-negative (MCF7; [6]): 26.9 ± 2% | percentage of EdU-negative (MCF7; [7]): 36.6 ± 0.72% | percentage of EdU-negative (hTERT-HMEC; [6]): 4.53 ± 0.46% | percentage of EdU-negative (hTERT-HMEC; [7]): 11.8 ± 0.14%

MRPGAPGPLWPLPWGALAWAVGFVSSMGSGNPAPGGVCWLQQGQEATCSLVLQTDVTRAECCASGNIDTAWSNLTHPGNKINLLGFLGLVHCLPCKDSCDGVECGPGKACRMLGGRPRCECAPDCSGLPARLQVCGSDGATYRDECELRAARCRGHPDLSVMYRGRCRKSCEHVVCPRPQSCVVDQTGSAHCVVCRAAPCPVPSSPGQELCGNNNVTYISSCHMRQATCFLGRSIGVRHAGSCAGTPEEPPGGESAEEEENFV
percentage of EdU-negative (MCF7; [6]): 26 ± 2.5% | percentage of EdU-negative (MCF7; [7]): 24.7 ± 3.3% | percentage of EdU-negative (hTERT-HMEC; [6]): 4.24 ± 0.09% | percentage of EdU-negative (hTERT-HMEC; [7]): 4.84 ± 0.11%

MGPPPGAGVSCRGGCGFSRLLAWCFLLALSPQAPGSRGAEAVWTAYLNVSWRVPHTGVNRTVWELSEEGVYGQDSPLEPVAGVLVPPDGPGALNACNPHTNFTVPTVWGSTVQVSWLALIQRGGGCTFADKIHLAYERGASGAVIFNFPGTRNEVIPMSHPGAVDIVAIMIGNLKGTKILQSIQRGIQVTMVIEVGKKHGPWVNHYSIFFVSVSFFIITAATVGYFIFYSARRLRNARAQSRKQRQLKADAKKAIGRLQLRTLKQGDKEIGPDGDSCAVCIELYKPNDLVRILTCNHIFHKTCVDPWLLEHRTCPMCKCDILKALGIEVDVEDGSVSLQVPVSNEISNSASSHEEDNRSETASSGYASVQGTDEPPLEEHVQSTNESLQLVNHEANSVAVDVIPHVDNPTFEEDETPNQETAVREIKS [Q8TEB7]
percentage of EdU-negative (MCF7; [8]): 24.4 ± 1.5% | percentage of EdU-negative (MCF7; [9]): 31.5 ± 1.1% | percentage of EdU-negative (hTERT-HMEC; [8]): 4.65 ± 0.73% | percentage of EdU-negative (hTERT-HMEC; [9]): 10.2 ± 2.7%

Q9ULL4
percentage of EdU-negative (MCF7; [10]): 23.6 ± 1.5% | percentage of EdU-negative (MCF7; [11]): 27.8 ± 0.59% | percentage of EdU-negative (hTERT-HMEC; [10]): 5.08 ± 0.93% | percentage of EdU-negative (hTERT-HMEC; [11]): 5.74 ± 0.25%

MDSSREPTLGRLDAAGFWQVWQRFDADEKGYIEEKELDAFFLHMLMKLGTDDTVMKANLHKVKQQFMTTQDASKDGRIRMKELAGMFLSEDENFLLLFRRENPLDSSVEFMQIWRKYDADSSGFISAAELRNFLRDLFLHHKKAISEAKLEEYTGTMMKIFDRNKDGRLDLNDLARILALQENFLLQFKMDACSTEERKRDFEKIFAYYDVSKTGALEGPEVDGFVKDMMELVQPSISGVDLDKFREILLRHCDVNKDGKIQKSELALCLGLKINP
percentage of EdU-negative (MCF7; [1]): 40.5 ± 16% | percentage of EdU-negative (MCF7; protein concentration 0.225 µM): 25.7 ± 0.85% | percentage of EdU-negative (hTERT-HMEC; [1]): 4.77 ± 0.84% | percentage of EdU-negative (hTERT-HMEC; protein concentration 0.225 µM): 5.6 ± 0.67%
